Laboratory results from doi:10.1101/2024.08.23.608024.

T1: GbpC (glucan-binding protein C), extracellular fragment (Streptococcus mutans, UniProt Q8DTF1 111-522)
T1 sequence: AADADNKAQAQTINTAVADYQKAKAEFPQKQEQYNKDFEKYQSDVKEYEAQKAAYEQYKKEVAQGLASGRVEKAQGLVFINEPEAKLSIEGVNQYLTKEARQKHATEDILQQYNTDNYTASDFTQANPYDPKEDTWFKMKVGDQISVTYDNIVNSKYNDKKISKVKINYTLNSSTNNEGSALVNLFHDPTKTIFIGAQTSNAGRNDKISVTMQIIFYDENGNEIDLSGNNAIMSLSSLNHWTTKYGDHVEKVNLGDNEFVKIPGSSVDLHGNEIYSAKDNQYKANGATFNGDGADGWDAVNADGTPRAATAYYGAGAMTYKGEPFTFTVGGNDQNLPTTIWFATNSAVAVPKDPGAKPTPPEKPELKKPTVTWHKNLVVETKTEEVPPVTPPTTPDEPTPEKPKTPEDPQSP

B1: A39 (flanked) (ssDNA)
DNA: AGATACCAATACGCTGCCTAGCCCCTACCCTGTTGCTCCCCCTCGCCCCTCTCACCCCGCCACTGGTAACGACATC
B2: A96 (flanked) (ssDNA)
DNA: AGATACCAATACGCTGCCCCGCCGGTCCCGAGCTACAACACTTTACGCCCCCCTCCCCGCCACTGGTAACGACATC
B3: A30 (ssDNA)
DNA: AGATACCAATACGCTGCCTTCTTGAAAAAGGGTAGCGCAGGCCGCTAATGACATAACTGCCACTGGTAACGACATC
B4: A65 (ssDNA)
DNA: AGATACCAATACGCTGCCTTTCCAATTACGCCATGCATCACCCCTAAAATCTGAATACGCCACTGGTAACGACATC

How the values were obtained:
[1] = molecular target: T1, GbpC (glucan-binding protein C), …; experiment: BLI
[2] = molecular target: T1, GbpC (glucan-binding protein C), …; experiment: MST
[3] = molecular target: T1, GbpC (glucan-binding protein C), …; experiment: AlphaScreen

Row | Binder | Kd [1] [µM] | Kd [2] [µM] | binding result [3]
1 | B1 | 5.7 |  | 
2 | B2 | 0.4 | 8.5 | 
3 | B3 |  |  | binds
4 | B4 |  |  | binds
5 | TAGCCCCTACCCTGTTGCTCCCCCTCGCCCCTCTCACCCC (ssDNA) [A39 truncated] |  | 19.6 | 
6 | CCGCCGGTCCCGAGCTACAACACTTTACGCCCCCCTCCC (ssDNA) [A96 truncated] |  | 66.9 | 
